Assay results reported in patent US20120230999A1 (ARIZONA BOARD OF REGENTS A BODY CORPORATE OF THE STATE OF …, published 2012).
The star is where a group is joined. DABCYL = CN(C)c1ccc(/N=N/c2ccc(C(=O)*)cc2)cc1; EDANS = O=S(=O)(O)c1cccc2c(NCCN*)cccc12

T1: internally quenched fluorogenic α-secretase substrate … (SMILES …)
T1 peptide: Ac-RE(EDANS)VHHQKLVFK(DABCYL)R-OH

B1: ASec-1A scFv (scFv)
scFv: DVLMETTQTPLTLSVTIGQPASISCKSSQSLLHTDGKTYLIWLLQRPGQSPKRLIYLVSKLDSGVPDRFTGSGSGTDFTLKISRVEAEDLGVYYCWQGTHFPQTFGGGTKLEIKRADAAPGGGGSGGGGSGGGGSGSESGGGLVKPGGSLKLSCAASGFTFSIYGMETFWFRQTPEKRLEWVATISGGDTYTYYPDSVKGRFTISRDNAKNNLFLQMETSSLRSEDTPLYFCGRNHQITMETWGQGTLVTVSA
B2: ASec-1B scFv (scFv)
scFv: DVLMETTQTPLTLSVTIGQPASISCKSSQSLLHTDGKTYLIWLLQRPGQSPKRLIYLVSKLDSGVPDRFTGSGSGTDFTLKISRVEAEDLGVYYCWQGTHFPQTFGGGTKLEIKRADAAPGGGGSGGGGSGGGGSGSESGGGLVKPGGSLKLSCAASGFAFSIYGMETSWFRQTPEKRLEWVATISGGDTYTYYPDSVKGRFTISRDNAKNNLFLQMETSSLRSEDTPLYFCGRSQKLHPWGQGLVTVSA

Assays:
[1] = molecular target: T1, internally quenched fluorogenic …; assay: cell-based or functional assay
[2] = molecular target: T1, internally quenched fluorogenic …; assay: cell-based or functional assay

Binder	specificity constant (kcat/KM) relative to parent ASec-1 scFv [1] [fold]	kcat (per min), hydrolysis of α-secretase Aβ fluorogenic substrate [2] [per min]	kcat/Km (µM/min), hydrolysis of α-secretase Aβ fluorogenic substrate [2] [µM/min]
B1	5.6	34.8	58.1
B2	2.8	61	40.4
